Measured values as given in patent US20230242658A1 (published 2023).
Numbering of substitutions follows the chain as printed.

B1: PR007149 (bispecific antibody)
light: DIQMTQSPSTLSASVGDRVTVTCRASQSIYIWLAWYQQKPGKAPNLLIYKASSLETGVPSRFSGSGSGTEFTLTISSLQPDDFATYYCQQYYGSSRTFGQGTKVEIKRTVAAPSVFIFPPSDEQLKSGTASVVCLLNNFYPREAKVQWKVDNALQSGNSQESVTEQDSKDSTYSLSSTLTLSKADYEKHKVYACEVTHQGLSSPVTKSFNRGEC
heavy: EVQLVESGGGLVQPGGSLRLSCAASGFTFSSYWMSWVRQAPGKGLEWVANIKQEGSEKYYVDSVKGRFTISRDNAKNSLYLQMNSLRAEDTAVYYCARDRAVAGAFDIWGQGTMVTVSSASTKGPSVFPLAPSSKSTSGGTAALGCLVKDYFPEPVTVSWNSGALTSGVHTFPAVLQSSGLYSLSSVVTVPSSSLGTQTYICNVNHKPSNTKVDKKVEPKSCDKTHTCPPCPAPEAAGAPSVFLFPPKPKDTLMISRTPEVTCVVVDVSHEDPEVKFNWYVDGVEVHNAKTKPREEQYNSTYRVVSVLTVLHQDWLNGKEYKCKVSNKALPAPIEKTISKAKGQPREPQVYTLPPSREEMTKNQVSLTCLVKGFYPSDIAVEWESNGQPENNYKTTPPVLDSDGSFFLYSKLTVDKSRWQQGNVFSCSVMHEALHNHYTQKSLSLSPGGGSGGSEVQLVESGGGLVKPGGSLRLSCTTSGFTFSDYYMNWVRQAPGKGLEWVSYISNNGSTIYYADSVKGRFTISRDNAKNSLYLQMNSLRAEDTAVYYCARVRPGGSGNYWDWFDPWGQGTPVTVSS
B2: PR007142 (bispecific antibody)
light: B1 light
heavy: B1 heavy with T477A, T478A, N489S, V491I, P573M
B3: PR007138 (bispecific antibody)
light: B1 light
heavy: B1 heavy with T477V, V491I, L499Q, N507G
B4: PR007139 (bispecific antibody)
light: B1 light
heavy: EVQLVESGGGLVQPGGSLRLSCAASGFTFSSYWMSWVRQAPGKGLEWVANIKQEGSEKYYVDSVKGRFTISRDNAKNSLYLQMNSLRAEDTAVYYCARDRAVAGAFDIWGQGTMVTVSSASTKGPSVFPLAPSSKSTSGGTAALGCLVKDYFPEPVTVSWNSGALTSGVHTFPAVLQSSGLYSLSSVVTVPSSSLGTQTYICNVNHKPSNTKVDKKVEPKSCDKTHTCPPCPAPEAAGAPSVFLFPPKPKDTLMISRTPEVTCVVVDVSHEDPEVKFNWYVDGVEVHNAKTKPREEQYNSTYRVVSVLTVLHQDWLNGKEYKCKVSNKALPAPIEKTISKAKGQPREPQVYTLPPSREEMTKNQVSLTCLVKGFYPSDIAVEWESNGQPENNYKTTPPVLDSDGSFFLYSKLTVDKSRWQQGNVFSCSVMHEALHNHYTQKSLSLSPGGGSGGSEVQLVESGGGLVKPGGSLRLSCAASGFTFSDYYMSWIRQAPGKGLEWVSYISSSGSTIDYADSVKGRFTISRDNAKNSLYLQMNSLRAEDTAVYYCAREREEVAGTLDYDNWGQGTLVTVSS
B5: PR007137 (bispecific antibody)
light: B1 light
heavy: B4 heavy with L465V, K467Q, G470R, I491F, S510T, Y563F, N565Y, L571P
B6: PR007132 (bispecific antibody)
light: B1 light
heavy: EVQLVESGGGLVQPGGSLRLSCAASGFTFSSYWMSWVRQAPGKGLEWVANIKQEGSEKYYVDSVKGRFTISRDNAKNSLYLQMNSLRAEDTAVYYCARDRAVAGAFDIWGQGTMVTVSSASTKGPSVFPLAPSSKSTSGGTAALGCLVKDYFPEPVTVSWNSGALTSGVHTFPAVLQSSGLYSLSSVVTVPSSSLGTQTYICNVNHKPSNTKVDKKVEPKSCDKTHTCPPCPAPEAAGAPSVFLFPPKPKDTLMISRTPEVTCVVVDVSHEDPEVKFNWYVDGVEVHNAKTKPREEQYNSTYRVVSVLTVLHQDWLNGKEYKCKVSNKALPAPIEKTISKAKGQPREPQVYTLPPSREEMTKNQVSLTCLVKGFYPSDIAVEWESNGQPENNYKTTPPVLDSDGSFFLYSKLTVDKSRWQQGNVFSCSVMHEALHNHYTQKSLSLSPGGGSGGSEVQLVESGGGLVKPGGSLRLSCAASGFTFSDYYMSWIRQAPGKGLEWVSYISSSGSTIYYADSVKGRFTISRDNAKNSLYLQMNSLRAEDTAVYYCARVKPVAGTWDWFDPWGQGTPVTVSS
B7: PR007135 (bispecific antibody)
light: B1 light
heavy: B4 heavy with I491F, S507G, T511I, A551S, E556A, Y563F, N565Y
B8: PR007130 (bispecific antibody)
light: B1 light
heavy: EVQLVESGGGLVQPGGSLRLSCAASGFTFSSYWMSWVRQAPGKGLEWVANIKQEGSEKYYVDSVKGRFTISRDNAKNSLYLQMNSLRAEDTAVYYCARDRAVAGAFDIWGQGTMVTVSSASTKGPSVFPLAPSSKSTSGGTAALGCLVKDYFPEPVTVSWNSGALTSGVHTFPAVLQSSGLYSLSSVVTVPSSSLGTQTYICNVNHKPSNTKVDKKVEPKSCDKTHTCPPCPAPEAAGAPSVFLFPPKPKDTLMISRTPEVTCVVVDVSHEDPEVKFNWYVDGVEVHNAKTKPREEQYNSTYRVVSVLTVLHQDWLNGKEYKCKVSNKALPAPIEKTISKAKGQPREPQVYTLPPSREEMTKNQVSLTCLVKGFYPSDIAVEWESNGQPENNYKTTPPVLDSDGSFFLYSKLTVDKSRWQQGNVFSCSVMHEALHNHYTQKSLSLSPGGGSGGSEVQLLESGGGLVQPGGSLRLSCAASGFTFSNYAMSWFRQPPETGLKWVSSIDASGGDTYYADSVKGRFTISRDNSKNTLYLQMNSLRAEDTAVYYCAKEGSHGTDDSHYDVDVWGQGTTVTVSS
B9: PR007136 (bispecific antibody)
light: B1 light
heavy: B4 heavy with I491F, I512Q, E556P, Y563F, L571P
B10: PR007133 (bispecific antibody)
light: B1 light
heavy: B4 heavy with V459E, I491F, T511I, I512T, S517A, T523N, E556A, Y563F

What follows are binders tested against T1, human 4-1BB on CHO-K1 cells (human, UniProt Q07011 24-255) (assay: FACS).

Binder	EC50 [nM]
B1	2.36
B2	23.8
B3	3.15
B4	6.84

Biological target: T1, human 4-1BB on CHO-K1 cells
Assay: FACS
Remark: another data set of the same source
Target sequence in this assay (Q07011 24-255): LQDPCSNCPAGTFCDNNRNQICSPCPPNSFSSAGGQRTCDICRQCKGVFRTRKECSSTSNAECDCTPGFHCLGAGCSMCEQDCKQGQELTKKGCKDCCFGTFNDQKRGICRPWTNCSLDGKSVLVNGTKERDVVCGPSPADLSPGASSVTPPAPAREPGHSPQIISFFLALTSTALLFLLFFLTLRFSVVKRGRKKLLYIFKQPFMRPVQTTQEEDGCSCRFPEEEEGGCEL

Binder	EC50 [nM]
B5	4.65
B6	5.58
B7	12.9
B8	2.06
B9	8.74
B10	5.06

Each binder was assayed against human PD-L1 on CHO-K1 cells (human, UniProt Q9NZQ7 19-290) (assay: FACS; MDA-MB-231 cells).
Chain of human PD-L1 on CHO-K1 cells (Q9NZQ7 19-290): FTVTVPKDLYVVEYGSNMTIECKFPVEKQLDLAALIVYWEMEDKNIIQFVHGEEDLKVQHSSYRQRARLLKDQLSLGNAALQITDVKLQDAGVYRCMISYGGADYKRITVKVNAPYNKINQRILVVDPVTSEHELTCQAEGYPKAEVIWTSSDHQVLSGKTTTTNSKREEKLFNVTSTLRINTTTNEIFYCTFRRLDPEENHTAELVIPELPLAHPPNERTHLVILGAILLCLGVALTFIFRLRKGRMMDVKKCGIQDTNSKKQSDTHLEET

Binder	EC50 [nM]
B5	0.203
B6	0.22
B7	0.299
B8	0.161
B1	0.206
B2	0.263
B3	0.202
B9	0.253
B10	0.216
B4	0.257
